Measurements from publication PMC9198467 (The Journal of Biological Chemistry, 2022).

Biological target: His-DnaB helicase (E. coli, UniProt P0ACB0 1-471)
Assay: pull-down

Chain of His-DnaB helicase (P0ACB0 whole entry): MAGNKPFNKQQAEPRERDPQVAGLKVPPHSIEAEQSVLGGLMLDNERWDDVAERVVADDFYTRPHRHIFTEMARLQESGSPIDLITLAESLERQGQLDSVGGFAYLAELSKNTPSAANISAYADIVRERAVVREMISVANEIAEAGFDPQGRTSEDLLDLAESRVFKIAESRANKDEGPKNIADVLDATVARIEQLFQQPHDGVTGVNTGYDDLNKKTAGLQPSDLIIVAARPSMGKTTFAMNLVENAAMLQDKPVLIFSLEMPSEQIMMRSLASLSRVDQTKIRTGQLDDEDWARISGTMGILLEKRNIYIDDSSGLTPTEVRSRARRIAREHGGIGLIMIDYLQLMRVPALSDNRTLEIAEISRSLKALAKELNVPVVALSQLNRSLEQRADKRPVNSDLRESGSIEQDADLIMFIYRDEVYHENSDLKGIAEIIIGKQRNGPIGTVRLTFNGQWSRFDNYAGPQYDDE

B1: Escherichia coli DnaA, ATP-bound form (ATP–DnaA), wild type (natural protein, E. coli, UniProt P03004 1-467, looked up)
chain: MSLSLWQQCLARLQDELPATEFSMWIRPLQAELSDNTLALYAPNRFVLDWVRDKYLNNINGLLTSFCGADAPQLRFEVGTKPVTQTPQAAVTSNVAAPAQVAQTQPQRAAPSTRSGWDNVPAPAEPTYRSNVNVKHTFDNFVEGKSNQLARAAARQVADNPGGAYNPLFLYGGTGLGKTHLLHAVGNGIMARKPNAKVVYMHSERFVQDMVKALQNNAIEEFKRYYRSVDALLIDDIQFFANKERSQEEFFHTFNALLEGNQQIILTSDRYPKEINGVEDRLKSRFGWGLTVAIEPPELETRVAILMKKADENDIRLPGEVAFFIAKRLRSNVRELEGALNRVIANANFTGRAITIDFVREALRDLLALQEKLVTIDNIQKTVAEYYKIKVADLLSKRRSRSVARPRQMAMALAKELTNHSLPEIGDAFGGRDHTTVLHACRKIEQLREESHDIKEDFSNLIRTLSS
- binding result: binds
